Test results: article PMC4598101, “Growth of Chitinophaga pinensis on Plant Cell Wall Glycans and Characterisation of a Glycoside Hydrolase Family 27 β-L-Arabinopyranosidase Implicated in Arabinogalactan Utilisation” (PLoS ONE, 2015)
Residue numbers refer to the chain shown, from its start. Names and notes keep the numbering of the source.

B1: CpArap27 (Cpin_5740 gene product) (Chitinophaga pinensis DSM 2588) (protein)
chain: AQQKKDFHSWAPTPPMGWNSWDCYGPTVTEAEVKANADYMASHLKSSGWQYIIVDIRWYVANDKSHGYNETDPAYNIDAYGRFQPAVNRFPSAANGKGFKPLADYIHSKGLKFGIHIMRGVPVVAVNKKLPVKGTNVTAADIYSKQDQCKWLHDMYTIVPDKTGAQEYYNSLFDMYAAWGLDFVKVDDLSAPIYFTEEIEMIRKAITRTGRKILLSTSPGETPIAQGAHVQQHANMWRTVDDFWDNWPHLKDHFEVFDRWNKWRTTGAWPDGDMLPLGHIGIRAERGQPRMTSFTKDEQYTLMTLWTIFRSPLMFGGNLPDNDPFTLSLLTNKQVLQVLNNSSNNRPVFNDKDKAAWTADMPGKSAKYLAVFNKADKDAAAVNVDLSEIGIKGSCTITDLWTGKVLGKFTGSFAPQINPHGAGLYKVTP
notes: ~48 kDa; monomer by SEC
B2: CpArap27 (Cpin_5740 gene product) (Chitinophaga pinensis DSM 2588; I73C) (protein)
chain: B1 chain with I56C
notes: ~48 kDa; monomer by SEC
B3: CpArap27 (Cpin_5740 gene product) (Chitinophaga pinensis DSM 2588; I73D) (protein)
chain: B1 chain with I56D
notes: ~48 kDa; monomer by SEC
B4: CpArap27 (Cpin_5740 gene product) (Chitinophaga pinensis DSM 2588; I73E) (protein)
chain: B1 chain with I56E
notes: ~48 kDa; monomer by SEC

Columns and labels:
[1] = substrate: O=[N+]([O-])c1ccc(O[C@H]2OC[C@H](O)[C@H](O)[C@H]2O)cc1; test: continuous pNP release, spectrophotometer; format: biochemical, Chitinophaga pinensis; details: 50 mM sodium citrate pH 5.0, 30 °C
From the text: (§1) continuous pNP release, spectrophotometer on CpArap27 (Cpin_5740 gene product)

[2] = substrate: O=[N+]([O-])c1ccc(O[C@H]2O[C@H](CO)[C@H](O)[C@H](O)[C@H]2O)cc1; test: continuous pNP release, spectrophotometer; format: biochemical, Chitinophaga pinensis; details: 50 mM sodium citrate pH 5.0, 30 °C
From the text: as §1

Protein | Km [1] [mM] | kcat [1] [s⁻¹] | kcat/Km [1] [M⁻¹ s⁻¹] | Km [2] [mM] | kcat/Km [2] [M⁻¹ s⁻¹] | kcat [2] [s⁻¹]
B1 | 12.9 ± 3.27 | 32.3 ± 3.58 | 2500 | – | – | –
B2 | 21.5 ± 10.4 | 0.403 ± 0.119 | 18.8 | – | – | –
B3 | 8.63 ± 2.14 | 0.00718 ± 0.000775 | 0.832 | 35.3 ± 11.9 | 0.00585 | –
B4 | 6.56 ± 3.39 | 0.528 ± 0.115 | 80.5 | 35.6 ± 15.2 | 2.95 | 0.105 ± 0.0518
